2 substances from publication PMC2676315 can be followed below.

What all share (test): other fluorescence titration; quenching of the tryptophan fluorescence of SET/TAF-Iβ polypeptides (0.2 to 4 μM; excitation 295 nm, emission 345 nm) on addition of histone; PBS, 25°C; non-linear regression; three repeats
Experiment [1] deals with SET/TAF-Iβ (76–185), GST removed (human) (UniProt Q01105).
For experiment [2], the target named is SET/TAF-Iβ (1–210), GST removed (human) (UniProt Q01105).
Experiment [3] deals with SET/TAF-Iβ (110–277), GST removed (human) (UniProt Q01105).
Experiment [4] addresses SET/TAF-Iβ (1–277), GST removed (human) (UniProt Q01105).
In experiment [5] the target is SET/TAF-Iβ (76–210), GST removed (human) (UniProt Q01105).

What is called Kd is the concentration at which binding is half-saturated. Lower therefore signals a tighter complex.

As to “calf thymus histone H3 (from UniProt P68432 1-136) (natural protein)”, the Kd in experiment [1] was determined as 100 nM; in experiment [2], 130 nM; in experiment [3], 160 nM; in experiment [4], 150 nM; in experiment [5] it was 140 nM.
On to “histone H2B (from UniProt P62808 1-126) (natural protein)”, for which, in experiment [4], the Kd stood at 2870 nM.
